Laboratory results: the supplement of paper PMC12042874
± gives the uncertainty stated by the source.

Experiment: amyloid nucleation score (Sup35N fusion, yeast selection) (log enrichment); library NNK3; higher = more nucleation; inactive = no reads after selection
In short: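 Output and input plasmid inserts were sequenced by Illumina after psi-negative yeast carrying Sup35N fused to peptides of 20 random codons had been induced 24 hours with 100 μM copper sulfate and grown 7 days at 30°C on medium lacking adenine and uracil. The nucleation score is the DiMSum log enrichment of output over input reads, centred on the mode score of non-aggregating sequences. Sequences with under 100 input reads were excluded.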

Substance	amyloid nucleation score
EVSWVSRNVWFNRTCFCVQV	0.042 ± 0.64
YSNHLD	inactive
SRSVTESLCLYT	inactive
LSDGGAFLLIRHVFVWGFVT	inactive
KNSASLFL	inactive
SGDLMEGGEYF	inactive
QYLCWCCVARRPGSGFRTVV	inactive
PYKEFPNNVRPTWNQRYNVK	inactive
CKTMFYY	inactive
RFSYWGKDRSRVSNL	inactive
CNYNGLESILR	inactive
GEKCGRSRI	inactive
IRYRRHVNVEFKMYNWSCWC	-0.554 ± 0.63
VIVVREYVVWKNISMIVDYL	-0.019 ± 0.24
SRKVRGYLLMTNFVCLSNYV	inactive
WMPQFCLRCSSVV	inactive
CDWRESVFRRAVTLPVALWM	inactive
DSGLCV	inactive
NDQAYMFYIGVYTTLCIGLK	inactive
SGYLYFFLRSVDCRFLTSSL	inactive
RIMGSPQSDS	inactive
PVLML	inactive
MMGIGVACYVKCGFFVYNWG	inactive

Substance	amyloid nucleation score
ALGKRSLLR	inactive
YCSVLELKSYLTLSLSKWKW	inactive
FLLEYYVCMFAVWSIWGMGH	0.317 ± 0.75
LGVRCYNFIRFKYLSCLRLP	inactive
PGDVRLGDIVLIFFLRM	0.781 ± 0.26
RPRFWICMSYMEQSSDNRRT	1.37 ± 0.084
NDSGAPPLPSGLQPLHH	inactive
RLDGCM	inactive
CRYQCRQLKVIVCSGDWNLV	inactive
SRILRYVTLSEYWFQPIGLD	inactive
HGSYSDGVEVNEFRLGTRVG	inactive
SISVNVCRWTRCLGTQLLSV	inactive
YFLGRVRK	inactive
TCVLLCDVFFHGLVLDLKLV	inactive
WSYIVLTVLTWVACCTFWFV	-0.436 ± 0.49
SYFWILRAWS	inactive
YVICVISVQRWTM	inactive
TSYSKEVFQLLKWVGNLIRG	inactive
VKFYNLRRCVIDLMITLSRM	inactive
LFRHLVNRLNLTSTAKYHGF	inactive
YISFFGGFANNGYCWWICAS	1.81 ± 0.069
RLLSKVSNFREYTSSSVPDV	inactive
IIFQTVR	inactive

Substance	amyloid nucleation score
CLGGQRHDVLPVCCWEFIME	inactive
KLMVNNQFISISINMSRCLF	1.63 ± 0.098
ISDDICSVKVSGRRACHWIG	inactive
ASSRSHPV	inactive
GYLLVVW	inactive
VRFNSYAFYITIVGGKHTTT	2.38 ± 0.059
RKLLCWTRDGRIWMRVEGTA	inactive
FMCLFMNHYLKFGTSFPGRG	0.974 ± 0.14
ARFMC	inactive
RHSILVSYFHWWFRDWKPFW	inactive
GRWLV	inactive
RRSKISLS	inactive
RLTTLPIRSPFTLGYTFARK	inactive
IRVRTYSTKLPSLGH	inactive
MYFMGLFFMTGVGFSMKEVE	inactive
LMSSGVGLPFSDTSAWLIVW	inactive
SDQVGFQIEVFCVKS	inactive
GMCVGDLEAQTSEGTSNESW	inactive
RHGVTMRLSCQTWHFAFHLR	inactive
QNVWSSVDNRWSIVENCTMA	0.464 ± 0.37
LWGYDNDVNCCTMALNVHGV	0.503 ± 0.3
GSSSSVYWFLDGCDTLKRHM	inactive
QVLRSYHYGCYSGCGALHMR	inactive

Substance	amyloid nucleation score
VSYGTCH	inactive
SIVQLNYTELAVKWSLVS	inactive
VCTFTETHGTYLVFALYQPD	0.367 ± 0.54
WYHSQNVINCRQSVVTMKHN	inactive
RVTGTCGFRRDGFESWRNTR	inactive
APWYVNWGMYNCEWGRGS	inactive
EGHGGTRLSHRA	inactive
NSFDSMGSMFANRYRLNFPR	inactive
EMCINSVMMDATMSKH	inactive
RRLCKYYLQVKSPCIGHDCQ	inactive
TRLDGHTYMFTL	inactive
TIFKRSPACYYNGIHLWVTF	inactive
IVECFYTL	inactive
MICSLTSHRKRN	inactive
IRSRTVTWQQWQLHSRNGRS	0.086 ± 0.56
RVARMFGEY	inactive
FYYYLCYDIVAISVLMNLPY	inactive
INPMGITDSVCSTAASG	inactive
DSKQNYLIRVDRLFMECGLK	inactive
WLPPRVMLFTPLRQWLYR	inactive
GNQAYTVTGGSETVCSDNGC	inactive
RRPVYIIASNLDYMQTSCIT	inactive
YSALNSYSWYVTPFYILYWF	2.56 ± 0.084

Substance	amyloid nucleation score
STRILRLHITSMLDFRTTGA	inactive
AFFWCR	0.314 ± 0.25
YVRWCQWYGETDGPCCRNTV	inactive
VGLNVSWAYIMVAEYVVYMS	-0.698 ± 0.53
VRFCGLLIGQVTWFLAVLEY	inactive
LHEENA	inactive
NKCSVMCHLDGVTWVPERAV	inactive
CDHFQWYFLDRCLSVRCMIF	0.054 ± 0.36
SKNDIQARGSRKKCSNKGAK	inactive
DYYLNLGGK	inactive
ACNSPEVLQNLQRLRSCGRR	inactive
SFNSQSSRRVDNQRWVNLNF	0.886 ± 0.11
SVNLFVLMYLFII	1.9 ± 0.061
TNCCTCVMEASGNEGIGTLN	0.367 ± 0.23
ELGFFCSL	inactive
CGWMEGLCQLYENKEMKHWH	-0.261 ± 0.88
KGQYLSIGYNNFRG	-0.764 ± 1.8
PTQNKSDKVACGR	inactive
LHAFLEVSVRYTKSRST	inactive
SVYGIYGSNYMNTFVVVLVG	inactive
SSPDCNYNECVPGACERRGF	inactive
YYFFRKYEENFSGSNTGLVI	inactive
FPMCFSFHLIGQ	inactive

Substance	amyloid nucleation score
NNTSGNLVCFSVKCNVIVPY	2.42 ± 0.056
ALSMLTG	inactive
MKLINRDFSL	inactive
FCPTVCQFMVPPPHPSKKLY	inactive
LHKLVLMINDRPYLKPS	inactive
CEFWNKYSNLWIWGWL	0.51 ± 0.31
ATDNVCVI	inactive
GFAISQAYALSTPFVCISAI	inactive
LCTLMCTQFNYFVSETWLVP	2.25 ± 0.093
RYWWYHSYRNGSGSLESYGV	inactive
LMSNHCGKYWRHFSWIMTVF	inactive
WSSTRLPSMSPCGFIHQGYI	inactive
LWVCNRGGTPTSVSSESRRE	-0.187 ± 1
GSSWCLTLWLKNSLATVQTQ	inactive
SGCVKLVVNTCLRYY	inactive
FIYSHTVWFRNYLHMYPILF	inactive
TVTFYNCIVGCVSNWVSVQG	1.77 ± 0.068
RQEFIGWFSTSALSAQFLS	inactive
LYVWLAWYWVYPINHALVVC	inactive
DKKGK	inactive
LYMRLIGIRRAMHIYPPLKS	inactive
VLMECSNFAVEQTARLVPVR	inactive
VVIFFRIQRVTCVWNVLL	inactive

Substance	amyloid nucleation score
SLGFGIDSSYGLLTGYKFFT	0.264 ± 0.21
VRVMDLVGKALSTSSVANLA	inactive
SGAQARDV	inactive
FYISREALLSIASRTLRARQ	inactive
VTPVTYQASLTICYSYKALH	inactive
LMYAVLGTQTVSLSAFKSR	-0.3 ± 1.1
ISNSYH	inactive
AASEPGSKRLEAAQWVPVAS	inactive
FLDFTWMKHGTLALPQAAHQ	inactive
LLRRNINMFSIQFFSRVTWL	-0.141 ± 0.96
RLSQCRLLVFDGTQVFMCCV	2.01 ± 0.077
FRSFIGKNHEKRSVILCILE	inactive
KRDTSWLPVCNSGLSQCRKR	inactive
MMNVWLAFAPGML	0.9 ± 0.14
VIVYQKSMLHLGCSLGIAFW	inactive
TGHSQSLVVLTCWCVLFHAR	inactive
CTFDWVLITLVEGSRAIW	inactive
DGRAWRALRGPK	inactive
LIGCVLGSLFLRDIFIYCLM	0.409 ± 0.67
FSIVMTRFSFGSRVGSFYNF	0.151 ± 0.44
NCRFEGLDKSTS	inactive
